From patent US20190315847A1 (UNIVERSITY OF PITTSBURGH OF THE COMMONWEALTH SYSTEM OF …, published 2019) come the findings set out here.

The target of this experiment is T1, insulin like growth factor 1 receptor (IGF1R) (human, UniProt P08069 31-736; P08069 741-1367).
T1 construct: Endogenous IGF1R in MCF-7 and T47D breast cancer cells; also called IGF1 receptor; IGFR1
Kind of experiment: in situ proximity ligation assay (Duolink), MCF-7 and T47D cells. The protocol: In situ proximity ligation assay (PLA) was used to analyze the direct interaction between IGF1R and E-cadherin in breast cancer cells. MCF-7 (FIG. 7A) and T47D (FIG. 7B) cells were plated on coverslips, fixed, and stained with IGF1R and E-cadherin antibody overnight. The Duolink (Sigma) protocol was followed and coverslips were imaged using confocal microscopy to reveal red puncta. MCF-7 cells transfected with anti-CDH1 siRNA (siCDH1; FIG. 7C) or anti-IGF1R siRNA (siIGF1R; FIG. 7D) were used as negative controls for the assay to assess primary antibody specificity. […] All puncta and nuclei in 60× images were counted. One-way ANOVA was used to determine significant difference between groups (p<0.05; one independent experiment, n=5 images per slide counted). Further, IGF1R (green; second column from left) and E-cadherin (red; third column from left) were analyzed for co-localization (merge; fourth column from left) by immunofluorescence staining in MCF-7 cells transfected with siSCR (FIG. 7J) or siCDH1 (FIG. 7K). […]
Cells were plated on coverslips and fixed in 4% paraformaldehyde for 30 minutes at 37° C. […] The ratio of puncta/nuclei for each experimental condition was calculated by counting all puncta and nuclei in five 60× images.

T1 sequence (P08069 31-736, chain 1 of 2): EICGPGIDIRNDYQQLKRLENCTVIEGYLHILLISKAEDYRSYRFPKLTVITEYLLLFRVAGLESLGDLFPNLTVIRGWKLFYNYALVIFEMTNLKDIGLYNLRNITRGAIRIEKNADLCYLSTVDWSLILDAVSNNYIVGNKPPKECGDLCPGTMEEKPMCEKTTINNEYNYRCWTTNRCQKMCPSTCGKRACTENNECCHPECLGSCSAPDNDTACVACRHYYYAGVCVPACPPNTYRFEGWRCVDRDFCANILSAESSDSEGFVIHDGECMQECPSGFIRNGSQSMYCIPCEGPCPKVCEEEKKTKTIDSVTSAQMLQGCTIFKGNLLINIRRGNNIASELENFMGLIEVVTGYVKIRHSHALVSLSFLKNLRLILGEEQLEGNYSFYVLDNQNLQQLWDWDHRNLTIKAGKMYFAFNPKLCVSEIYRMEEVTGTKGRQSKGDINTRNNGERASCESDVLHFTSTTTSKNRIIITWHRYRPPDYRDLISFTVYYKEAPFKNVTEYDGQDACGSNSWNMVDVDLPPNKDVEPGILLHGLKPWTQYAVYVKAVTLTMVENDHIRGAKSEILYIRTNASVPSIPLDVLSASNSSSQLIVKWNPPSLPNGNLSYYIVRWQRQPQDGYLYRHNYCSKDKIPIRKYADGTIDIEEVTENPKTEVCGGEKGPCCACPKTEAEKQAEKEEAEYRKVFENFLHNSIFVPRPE
T1 sequence (P08069 741-1367, chain 2 of 2): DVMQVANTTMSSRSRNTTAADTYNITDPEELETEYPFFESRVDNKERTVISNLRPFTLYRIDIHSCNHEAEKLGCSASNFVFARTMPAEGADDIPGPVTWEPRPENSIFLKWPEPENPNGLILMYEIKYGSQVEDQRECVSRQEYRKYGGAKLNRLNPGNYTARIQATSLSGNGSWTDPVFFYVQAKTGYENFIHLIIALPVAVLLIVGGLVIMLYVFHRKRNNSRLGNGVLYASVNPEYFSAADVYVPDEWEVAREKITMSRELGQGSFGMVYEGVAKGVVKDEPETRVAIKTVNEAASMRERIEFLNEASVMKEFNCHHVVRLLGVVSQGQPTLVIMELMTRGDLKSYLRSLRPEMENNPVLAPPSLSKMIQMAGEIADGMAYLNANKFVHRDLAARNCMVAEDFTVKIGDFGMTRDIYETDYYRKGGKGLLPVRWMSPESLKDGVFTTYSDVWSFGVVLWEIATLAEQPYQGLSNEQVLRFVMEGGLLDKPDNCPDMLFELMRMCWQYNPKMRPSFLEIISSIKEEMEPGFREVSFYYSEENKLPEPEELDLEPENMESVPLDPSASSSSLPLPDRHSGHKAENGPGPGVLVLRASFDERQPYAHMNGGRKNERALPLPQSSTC

B1: E-cadherin (CDH1) (other)
chain: DWVIPPISCPENEKGPFPKNLVQIKSNKDKEGKVFYSITGQGADTPPVGVFIIERETGWLKVTEPLDRERIATYTLFSHAVSSNGNAVEDPMEILITVTDQNDNKPEFTQEVFKGSVMEGALPGTSVMEVTATDADDDVNTYNAAIAYTILSQDPELPDKNMFTINRNTGVISVVTTGLDRESFPTYTLVVQAADLQGEGLSTTATAVITVTDTNDNPPIFNPTTYKGQVPENEANVVITTLKVTDADAPNTPAWEAVYTILNDDGGQFVVTTNPVNNDGILKTAKGLDFEAKQQYILHVAVTNVVPFEVSLTTSTATVTVDVLDVNEAPIFVPPEKRVEVSEDFGVGQEITSYTAQEPDTFMEQKITYRIWRDTANWLEINPDTGAISTRAELDREDFEHVKNSTYTALIIATDNGSPVATGTGTLLLILSDVNDNAPIPEPRTIFFCERNPKPQVINIIDADLPPNTSPFTAELTHGASANWTIQYNDPTQESIILKPKMALEVGDYKINLKLMDNQNKDQVTTLEVSVCDCEGAAGVCRKAQPVEAGLQIPAILGILGGILALLILILLLLLFLRRRAVVKEPLLPPEDDTRDNVYYYDEEGGGEEDQDFDLSQLHRGLDARPEVTRNDVAPTLMSVPRYLPRPANPDEIGNFIDENLKAADTDPTAPPYDSLLVFDYEGSGSEAASLSSLNSSESDKDQDYDYLNEWGNRFKKLADMYGGGEDD
notes: Endogenous E-cadherin in MCF-7 and T47D breast cancer cells; also called epithelial cadherin; CD324
On to B1, for which the binding result is listed as “binds”.
